Laboratory results as given in doi:10.1101/2022.03.04.482347.
“And” between values parts separate entries of the source, which are not always exact repeats. Equal entries are not always repeated.

Columns and labels:
[1] = biological target: mouse PROM1 SV8 lacking exon 19a, Flag-tagged (mouse); test: native gel or EMSA
[2] = biological target: mouse PROM1, photoreceptor-specific isoform SV8 (contains exon 19a), Flag-tagged (mouse); test: native gel or EMSA

Substance | stoichiometry N [1] | stoichiometry N [2]
mouse PROM1 SV8 lacking exon 19a, Flag-tagged (natural protein) | 2 and 4 | 
mouse PROM1, photoreceptor-specific isoform SV8 (contains exon 19a), Flag-tagged (natural protein) |  | 2 and 4
